Laboratory results taken from doi:10.1101/2022.02.10.479912 (bioRxiv, 2022).

T1: human Interleukin-18 (mature) (human, UniProt Q14116 37-193)
T1 sequence (looked up): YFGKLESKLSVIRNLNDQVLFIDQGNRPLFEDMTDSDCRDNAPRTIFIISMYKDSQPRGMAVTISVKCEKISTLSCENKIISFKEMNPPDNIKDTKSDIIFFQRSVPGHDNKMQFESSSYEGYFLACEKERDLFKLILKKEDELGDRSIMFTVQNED


What was measured:
[1] = molecular target: T1, human Interleukin-18 (mature); assay: SEC-MALLS
[2] = molecular target: T1, human Interleukin-18 (mature); assay: ITC

| Binder | binding result [1] | binding result [2] |
| --- | --- | --- |
| human IL-18BP truncated at the N-terminus (residues 63-194), endogenously glycosylated, without Endo H treatment (domain or fragment, UniProt O95998 63-194, looked up, N-linked Man5GlcNAc2 glycans, not trimmed (no Endo H)) QCPALEVTWPEVEVPLNGTLSLSCVACSRFPNFSILYWLGNGSFIEHLPGRLWEGSTSRERGSTGTQLCKALVLEQLTPALHSTNFSCVLVDPEQVVQRHVVLAQLWAGLRATLPPTQEALPSSHSSPQQQG | binds |  |
| human IL-18BP truncated at the N-terminus (residues 63-194) treated with Endoglycosidase H (domain or fragment, UniProt O95998 63-194, looked up, N-glycans trimmed by Endo H; N-Acetylglucosamine (GlcNAc) at Asn79, Asn103 and Asn147 in the crystal structure) QCPALEVTWPEVEVPLNGTLSLSCVACSRFPNFSILYWLGNGSFIEHLPGRLWEGSTSRERGSTGTQLCKALVLEQLTPALHSTNFSCVLVDPEQVVQRHVVLAQLWAGLRATLPPTQEALPSSHSSPQQQG |  | binds |
